Target: TaCDC48-L745W (W466F, W541Y, L745W) (T. acidophilum, UniProt O05209 1-745, W466F | W541Y | L745W)
Test: tryptophan fluorescence shift

Chain of TaCDC48-L745W (W466F, W541Y, L745W) (O05209 whole entry W466F/W541Y/L745W): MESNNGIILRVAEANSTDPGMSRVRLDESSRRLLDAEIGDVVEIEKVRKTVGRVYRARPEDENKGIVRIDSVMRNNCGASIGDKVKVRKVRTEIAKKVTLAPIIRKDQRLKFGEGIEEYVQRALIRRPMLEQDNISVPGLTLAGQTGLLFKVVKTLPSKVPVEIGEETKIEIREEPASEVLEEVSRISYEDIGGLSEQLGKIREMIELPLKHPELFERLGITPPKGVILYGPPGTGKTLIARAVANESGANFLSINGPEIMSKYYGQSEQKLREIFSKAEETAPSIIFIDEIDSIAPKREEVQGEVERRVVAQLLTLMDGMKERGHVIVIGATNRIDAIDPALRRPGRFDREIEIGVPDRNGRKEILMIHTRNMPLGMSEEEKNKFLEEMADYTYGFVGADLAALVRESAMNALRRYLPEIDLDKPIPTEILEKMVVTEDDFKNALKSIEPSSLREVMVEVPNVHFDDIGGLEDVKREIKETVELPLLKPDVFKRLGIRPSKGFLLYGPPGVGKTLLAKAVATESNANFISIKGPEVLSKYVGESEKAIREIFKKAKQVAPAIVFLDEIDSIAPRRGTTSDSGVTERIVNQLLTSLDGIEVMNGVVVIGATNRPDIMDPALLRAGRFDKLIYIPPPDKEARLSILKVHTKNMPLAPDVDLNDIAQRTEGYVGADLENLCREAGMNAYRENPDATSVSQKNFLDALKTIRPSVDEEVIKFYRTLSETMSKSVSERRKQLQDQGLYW

B1: Thermoplasma acidophilum 20S proteasome core particle, recombinant (complex, T. acidophilum)
chain 1: MQQGQMAYDRAITVFSPDGRLFQVEYAREAVKKGSTALGMKFANGVLLISDKKVRSRLIEQNSIEKIQLIDDYVAAVTSGLVADARVLVDFARISAQQEKVTYGSLVNIENLVKRVADQMQQYTQYGGVRPYGVSLIFAGIDQIGPRLFDCDPAGTINEYKATAIGSGKDAVVSFLEREYKENLPEKEAVTLGIKALKSSLEEGEELKAPEIASITVGNKYRIYDQEEVKKFL
chain 2: TTTVGITLKDAVIMATERRVTMENFIMHKNGKKLFQIDTYTGMTIAGLVGDAQVLVRYMKAELELYRLQRRVNMPIEAVATLLSNMLNQVKYMPYMVQLLVGGIDTAPHVFSIDAAGGSVEDIYASTGSGSPFVYGVLESQYSEKMTVDEGVDLVIRAISAAKQRDSASGGMIDVAVITRKDGYVQLPTDQIESRIRKLGLIL
binding result: binds
